According to US20260029420A1 (Hoffmann-La Roche, published 2026):

Legend:
mouse CB2 (full length) = target: T1, mouse CB2 (full length) (mouse, UniProt P47936 1-347); test: immunofluorescence, fixed cells
T1 construct: whole, on cells; In Western blot and immunoprecipitation the protein stood in cell lysate; also called mCB2; CHO-A2 mCB2
Method: (§1) For IF analysis, methanol-fixed cells were incubated for 20 min in a humid chamber at 37° C. with the respective hCB2 and mCB2 clones. After rinsing twice and washing for 15 min in PBS, 125 μg/ml FITC-conjugated […] anti-mouse IgG antibodies (RAM/IgG (H+L)/FITC, Nordic

human CB1 (full length) = target: T2, human CB1 (full length) (human, UniProt P21554 1-472); test: immunofluorescence, fixed cells
T2 construct: whole, on cells; In Western blot and immunoprecipitation the protein stood in cell lysate; also called hCB1; CHODukx CRE hCB1 Cl.20
T2 sequence (P21554 whole entry): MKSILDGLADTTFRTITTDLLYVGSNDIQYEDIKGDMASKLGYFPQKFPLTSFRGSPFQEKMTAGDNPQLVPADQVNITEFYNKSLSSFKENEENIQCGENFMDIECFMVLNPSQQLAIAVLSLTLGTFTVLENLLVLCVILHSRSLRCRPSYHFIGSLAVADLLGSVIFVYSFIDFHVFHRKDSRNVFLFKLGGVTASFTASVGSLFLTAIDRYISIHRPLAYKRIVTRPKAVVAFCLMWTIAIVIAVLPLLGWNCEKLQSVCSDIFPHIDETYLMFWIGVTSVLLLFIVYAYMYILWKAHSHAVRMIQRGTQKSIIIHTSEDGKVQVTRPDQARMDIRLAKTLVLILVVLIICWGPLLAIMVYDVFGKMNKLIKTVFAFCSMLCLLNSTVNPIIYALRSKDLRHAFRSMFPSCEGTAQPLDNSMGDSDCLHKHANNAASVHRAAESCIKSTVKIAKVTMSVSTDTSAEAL
Method: as §1

Mouse_CB2-pANITA3.1 = target: T3, Mouse_CB2-pANITA3.1 (mouse); test: immunofluorescence, fixed cells
T3 construct: Fusion of the mouse CB2 N-terminal extracellular domain with mouse glycophorin A transmembrane and His-tagged cytoplasmic domains; Expressed on transfected HEK293 cells; also called pANITA3.1 mCB2 (JB176); mCB2 (JB176)
T3 sequence (chain, as listed by the source): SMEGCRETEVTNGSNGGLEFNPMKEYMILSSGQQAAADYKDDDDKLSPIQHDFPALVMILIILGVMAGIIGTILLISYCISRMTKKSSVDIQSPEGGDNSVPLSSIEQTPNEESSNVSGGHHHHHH
Method: as §1

Human_CB2-pANITA3.1 = target: T4, Human_CB2-pANITA3.1 (human); test: Western blot, cell lysate
T4 construct: Expressed on transfected HEK293 cells; tested on fixed cells (IF) or in lysate (WB, IP); also called pANITA3.1 hCB2 (JB175); hCB2 (JB175)
T4 sequence (chain, as listed by the source): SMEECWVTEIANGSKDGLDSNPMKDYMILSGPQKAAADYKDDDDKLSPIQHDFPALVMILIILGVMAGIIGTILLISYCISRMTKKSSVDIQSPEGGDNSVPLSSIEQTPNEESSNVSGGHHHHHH
Method: For Western blot analysis, cells were collected using enzyme free dissociation buffer (Cell dissociation buffer enzyme-free Hanks'-based, Gibco), and washed two times with PBS. To prepare cell lysate, 10⁶ cells were lysed with 0.1 ml of lysis buffer (1% NP40, 10% glycerol, 2 mM EDTA, 137 mM NaCl, 20 mM TrisHCl, pH8, Protease Inhibitors) for 10 min on ice. The lysate was cleared by centrifugation at 20′000 g for 5 min. For SDS-PAGE cell lysate was resolved on precast 4-12% gradient gels (NuPAGE® Novex 4-12% Bis-Tris Gel, Invitrogen) with MES running buffer according to the manufacturer's directions. The separation of proteins was visualized by Colloidal Blue staining. The proteins were electrophoretically transferred to nitrocellulose membrane using a dry-blotting system (iBlot, Invitrogen). After blocking the membrane for 16 h in blocking buffer (5% Milk in PBS) at 4° C., specific proteins were detected with appropriate dilutions of mAbs in blocking buffer for 1 h at approximately 20° C. The membrane was then washed four times for 5 minutes in blocking buffer and incubated with horseradish peroxidase conjugated anti-mouse IgG mAb (GAM/IgG (g-chain)/HRP, Sigma, A9917) diluted 1:10'000 in blocking buffer at approximately 20° C. for 1 h. After washing again, blots were developed using ECL Western blotting detection reagents (ECL Western Blotting Substrate, Pierce) to visualize bands.

human CB2 (full length) = target: T5, human CB2 (full length) (human, UniProt P34972 1-360); test: flow cytometry, CHO-DUKX_HOMSA_CNR2_Clone_90_CRE-Luc cells against CHO-DUKX parental cells
T5 construct: whole, on cells; In Western blot and immunoprecipitation the protein stood in cell lysate; also called hCB2; CHODukx CRE hCB2 Cl.90
T5 sequence (P34972 whole entry): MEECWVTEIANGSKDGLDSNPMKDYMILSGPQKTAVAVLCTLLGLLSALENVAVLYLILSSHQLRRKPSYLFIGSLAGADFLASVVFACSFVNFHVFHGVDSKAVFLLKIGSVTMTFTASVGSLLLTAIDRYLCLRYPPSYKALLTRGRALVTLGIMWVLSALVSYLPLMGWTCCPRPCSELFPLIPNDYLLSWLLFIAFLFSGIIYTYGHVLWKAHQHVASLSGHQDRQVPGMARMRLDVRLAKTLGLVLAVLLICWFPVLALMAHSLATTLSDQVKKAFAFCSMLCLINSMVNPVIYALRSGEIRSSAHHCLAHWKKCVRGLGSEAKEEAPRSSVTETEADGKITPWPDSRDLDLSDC
Text: For detection an F(ab)₂ goat-anti Mouse IgG₃ PE antibody was used.

T1 sequence (P47936 whole entry): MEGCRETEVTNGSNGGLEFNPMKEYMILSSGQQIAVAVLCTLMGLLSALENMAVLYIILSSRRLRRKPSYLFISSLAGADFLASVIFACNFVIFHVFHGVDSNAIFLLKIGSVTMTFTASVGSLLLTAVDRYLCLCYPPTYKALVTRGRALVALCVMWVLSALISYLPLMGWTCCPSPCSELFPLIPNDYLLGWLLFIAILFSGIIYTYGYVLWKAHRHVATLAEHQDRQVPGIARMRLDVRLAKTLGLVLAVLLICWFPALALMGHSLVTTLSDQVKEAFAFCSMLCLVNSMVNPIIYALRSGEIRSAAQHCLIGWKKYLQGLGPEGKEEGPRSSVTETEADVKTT

B1: Anti-CB2 clone 1/622 (antibody, IgG3, V domains shown)
VH: EVQLQQSGPELVKPGASVKISCKTSGYTFTEYTMHWVRQSHGKSLEWIGGIDRYNGDTYYNQKFKDKATLTVDRSSSTAYMELRSLTSEDSAVYFCARNGAMDYWGQGISVTVSS
VL: DVVMTQTPLSLPVSLGDQASISCRSSQSLVHSNGNTYLHWFLQKPGQSPKLLIYKVSIRFSGVPDRFSGSGSGTDFTLKISRVEAEDLGVYFCSQSTHVPPLTFGAGTKLELKR
Q: Does B1 bind (mouse CB2 (full length))?
A: Result: no binding

Q: Does B1 bind (human CB1 (full length))?
A: Result: no binding

Q: Does B1 bind (Mouse_CB2-pANITA3.1)?
A: Result: no binding

Q: Does B1 bind (Human_CB2-pANITA3.1)?
A: Result: binds

Q: And the “signal to background ratio” value (human CB2 (full length))?
A: Its value is 10.
